In US9513240B2, “MEMS-based calorimeter, fabrication, and use thereof” (The Trustees of Columbia University in the City of New York, priority 2011, dated 2016):

Tests used:
[1] = MEMS DSC measurement of lysozyme unfolding; type: physicochemical; conditions: lysozyme 1 to 20 mg/mL in 0.1 M Glycine-HCl buffer (pH 2.5); scan 25-75° C. at 5° C./min
Description: DSC measurements of biomolecules were performed using the calibrated microdevice, whose sample chamber and reference chamber were respectively filled with biological sample and buffer solutions, scanned in a range of temperature of interest. The temperature sensors were used to monitor the temperatures of calorimetric chambers while the device output was obtained in real time to compute the biomolecular thermal power. Before DSC measurements, the baseline in device output, i.e., the thermopile output voltage in the absence of a differential power input, during temperature scanning was measured with both calorimetric chambers filled with buffer solutions. Biological sample and buffer solutions were degassed with a vacuum chamber built in-house, metered with micropipettes, and introduced by a syringe pump (New Era Pump Systems, NE 1000).
The calibrated MEMS DSC device was employed to characterize protein unfolding, a common type of biomolecular conformational transition.
The thermopile output voltage as a function of temperature, corrected by baseline subtraction, was measured at varying protein concentrations ranging from 1 to 20 mg/mL (FIG. 10). […]

[2] = typical range; cited from earlier work
[3] = MEMS AC-DSC measurement of lysozyme unfolding; type: physicochemical
Source text: The DSC measurement system was configured similarly to that of Example 2. The microdevice was also placed in a thermal enclosure built in-house. The temperature of the sample stage in the thermal enclosure was controlled in closed-loop via a proportional-integral-derivative (PID) algorithm implemented by a commercial temperature controller (Lakeshore 331). The on-chip microheaters driven by a DC power supply (Agilent E3631A) were used to generate a constant differential power input, while for modulated heating, a square-wave AC voltage generated by a waveform generator (Agilent 33220A) was applied (FIG. 13). […] During device calibration, the thermopile output voltage was measured by a nanovoltmeter (Agilent 34420A), while during AC-DSC measurement, the amplitude and phase of thermopile voltage were measured by a lock-in amplifier (Stanford Research Systems SR830) referenced by the same AC modulation square wave from the waveform generator. […]
The methods for calibrating the DC performance of the MEMS device were substantially the same as described in Example 2. The baseline in device output, i.e., the thermopile voltage with no differential power input during temperature scanning, was measured with both chambers filled with buffer solutions. […]

In the case of lysozyme, the “melting temperature Tm” value [1] is given as “approximately 55 °C”, the “total change of molar enthalpy (ΔH) of unfolding” value [1] is given as “approximately 450 kJ/mol” and the “Tm, published data” value [2] is given as 55-58.9 °C. For the same substance, the “ΔH of unfolding, published data” value [2] was 90.1 to 105 kcal/mol, the “apparent melting temperature (Tm)” value ([3]; 10 and 20 mg/mL in 0.1 M Glycine-HCl buffer, pH 2.5, 25 to 82° C. at 5° C./min, modulation 1, 5 or 10 Hz) was 55-58 °C and the “difference in the specific heat capacity (Δc) between native and unfolded states” value ([3]; regardless of the modulation frequency) was 3.0 kJ/mol·K.
